Experimental data: article PMC9405769, “The Crystal Structure of the Defense Conferring Rice Protein OsJAC1 Reveals a Carbohydrate Binding Site on the Dirigent-like Domain” (Biomolecules, 2022)

What was measured:
[1] = molecular target: the molecule itself; assay: crystal structure; JRL-cf1: protein in 25 mM sodium phosphate pH 7.0, 10 mg/mL; reservoir 0.05 M MES pH 6.0, 28% (w/v) PEG 3350; sitting drop, 20 °C; non-reducing; space group P212121; two chains per asymmetric unit
[2] = molecular target: the molecule itself; assay: crystal structure; JRL-cf2: protein in 25 mM sodium phosphate pH 7.0, 11 mg/mL; reservoir 0.2 M NH4I, 20% (w/v) PEG 3350; sitting drop, 20 °C; space group C2221; two chains per asymmetric unit
[3] = molecular target: the molecule itself; assay: crystal structure; DIR-cf1: protein in 15 mM Tris-HCl pH 7.4, 1 mM DTT, 6.25 mg/mL; reservoir 0.2 M CaCl2, 20% (w/v) PEG 3350; sitting drop, 20 °C; space group P212121; three chains per asymmetric unit

B1: OsJAC1-JRL domain (His-tagged, crystal form 1) (domain or fragment, rice (Oryza sativa))
chain: QCPVTKIGPWGSSHEGTVQDITESPKRLESITLYHGWSVDSISFTYLDHAGEKHKAGPWGGPGGDPIMIEFGSSEFLKEVSGTFGPYEGSTVITSINFITNKQTYGPFGRQEGTPFSVPAQNNSSIVGFFGRSGKYINAVGVYVQPI
modifications: symmetric inter-subunit disulfide bond at Cys161 (Cys161-Cys161)
notes: JRL (jacalin-related lectin) domain of the monocot chimeric jacalin OsJAC1, rice (Oryza sativa); the model's termini are Gln160 and Pro305 of full-length OsJAC1 (residue range 160-306 used for superposition); also called JRL-cf1; OsJAC1-JRL (cf1); source: prepared as previously described in Huwa et al. (2021) [25]
- stoichiometry N [1]: 2

B2: OsJAC1-JRL domain (Strep-tagged, crystal form 2) (domain or fragment, rice (Oryza sativa))
chain: B1 chain
modifications: symmetric inter-subunit disulfide bond at Cys161 (Cys161-Cys161)
notes: JRL (jacalin-related lectin) domain of the monocot chimeric jacalin OsJAC1, rice (Oryza sativa); residue range 160-306 of full-length OsJAC1 used for superposition; also called JRL-cf2; OsJAC1-JRL (cf2); source: prepared as previously described in Huwa et al. (2021) [25]
- stoichiometry N [2]: 2

B3: OsJAC1-DIR domain (His-tag cleaved by thrombin) (domain or fragment, rice (Oryza sativa))
chain: SKLQITPCGMLVQGNQINFTKLYLHHTPAGPEQNQSAVTSNDKKTGLGCIVVNNWSVYDGIGSDAKLVAYAKGLHVFAGAWHNSFSLVFEDERLKGSTLQVMGLIVEEGDWAIVGGTGQFAMATGVILKKMQEQKQYGNIIELTIHGFCPLLKGS
notes: DIR (dirigent) domain, the N-terminal domain of the monocot chimeric jacalin OsJAC1, rice (Oryza sativa); traced residues include Lys6 (chain B), and the C-terminus of the model of chain A (cf1) is at Leu155; also called DIR-cf1; DIR-cf2; source: prepared as previously described in Huwa et al. (2021) [25]; His-tag removed with thrombin, no further purification
- stoichiometry N [3]: 3
